Source: PMC3526301

Key:
[1] = target: T1, human alpha-thrombin (Homo sapiens) (UniProt P00734+P00734); assay: bead-based fluorescence binding; details: 50 mM Tris, 100 mM NaCl, 1 mM MgCl2, 5 mM KCl, 1 mM CaCl2, 0.01% Tween 20, pH 7.5 (selection buffer), 1 h room temperature …
[2] = target: T1, human alpha-thrombin (Homo sapiens); assay: fibrin formation inhibition (OD350); details: 50 mM Tris, 100 mM NaCl, 1 mM MgCl2, 5 mM KCl, 1 mM CaCl2, 0.01% Tween 20, pH 7.5 (selection buffer), 1 h room temperature …

| Sequence | fold affinity loss vs TBV-08 (fold lower affinity than TBV-08) [1] | Ki [2] [nM] |
| --- | --- | --- |
| AGTCCGTGGTAGGGCAGGTTGGGGTGACT [Tasset-29] | 200 |  |
| GGTTGGTGTGGTTGG [Bock-15] | 300 | 2.61 |
